Test results: the DeepSol protein solubility set

Assay: soluble on expression in E. coli; label from the status in PepcDB or PDB records

Q: Which “soluble on expression in E. coli” value does the source give for “MCGKFTLFSEFDDIIEQFNIDQFLPEGEYHPSYNVAPSQNILTIINDGSNNRLGKLRWGLIPPCAKDEKIGYKMINARAETLAEKPSFRKPLGSKRCIIPADSFYEWKRLDPKTKIPMRIKLKSSNLFAFAGLYEKWNTLEGNLLYTCTIITIKPSELMEDIHDRMPVILTDENKKEWLNPKNTDPDYLQSLLLPYDADDMEAYQVSSLVNSPELIESHLEHHHHHH” here?
A: not soluble

Q: Which “soluble on expression in E. coli” value does the source give for “MCIGMDIRDFFAQSAGRWFSQRTSHHLAFKQTESGKSQLTIELLSVDDPAVIALCQQYDMDPAWAVCGARVSWDGTMEWDNEKHEGSTVLVPIMDQGSRMEGKLLREMGYAEKAPVAGRFSMGSDGALTLITEYETIYSEERLWFASPNLRLRTSILKRFGGFSMASFCSEIRLGVTQPANSLEHHHHHH” here?
A: soluble

Q: For “MCIGVPGQVLAVGEDIHQLAQVEVCGIKRDVNIALICEGNPADLLGQWVLVHVGFAMSIIDEDEAKATLDALRQMDYDITSA”, which “soluble on expression in E. coli” value is on record?
A: not soluble

Q: For “MCTGIKIISKTNDIFYGRTMDFTFDFFGNEDPIAPKIPTLIAQFPKGTVLNSQLNPWTAKYAFMGLAMSGTDQPANDGKTVSLAITDGINEAGLSGDIQYLMESSTAPAESLADRGLTPHIAEEVLAYILSNFESVDEVKVAFEKIGLLDQKFQLDSLGEVHFTLHWTINDKNNNSIVLQPTDNGAFVIYDSIGVVTNSPEYNYHLTNARNYIGMRNYAIKEPYTLKSGATLDPIEGGTSYGLLGIPGDFTSPSRFIRALYYSDNLQEFDSSEGIMQLYRAFQTVMIPRGIGHLGQSNSLSDFTHYWSGYDVTNLTMYVQPESTTSFTKYTLDPALTEVTTFAVSNELLLTDLNQ”, which “soluble on expression in E. coli” value is on record?
A: not soluble

Q: With “MCTSKPKFIPLPEQQSLCSLPNSGCCHVDVKVGRSKWEKRVAVLVQVEGEPDYKIYIYTKPLIGQIYPLNELKKREVKCEKDKVFLVNLASEKGEKITFKATGNNGSIWVAALMSGTFTSPIHETHGHTGGTGTDGTTSNIESDLKEKPDTNVYTGSREGYVPPPAKEGSGSGGKKKDMNNVAVKPDEKKKDSGRKLKKTVSKTITKLSVSESKKKTEKKIAATQKTQEFPIPKTVDEAHTNSEPDGDPLKLKKTITDGNELSLKGATAPTPQKAKLTTPTSTTPASSLTPSNALTPGNEDKKKMTTDSEEIELHEKKK” as the sequence, how does the “soluble on expression in E. coli” value read?
A: soluble

Q: With “MDAFRLAPCGPLRGRLRVPGDKSVTHRGLMLLALAEGEGRLFYPLKAGDTLSTARVLQALGAEVREEGPHFLVRGRGLRFQEPEDVLDCGNAGTLMRLLLGLLAGQEGLFAVLTGDASLRRRPMGRVVAPLRAMGARVDGREEGERAPLAVRGAPLRGLRYTLPVPSAQVKSALLLAGLFAEGVTKVEEPTPTRDHTERLFRHFGLPLEVEGRKVRTWRTGPFPAKDLVVPGDFSSAAFFLVAALVTPGSEVVVEGVGLNPTRTGLLTVLKAMGADLEWQVLEGEAGEPVGWVRARHSLLKGVAVDPGLIPLMVDEVPVLAAAAAWAEGETYIPGLSELRVKESDRVRAIAENLRALGVEVEEGPDWLRIRGGGVRPGRVRPFHDHRIAMAFAVAGLPVGVEVEEPHWAEISYPGFFQDLLRLCAAS” as the sequence, how does the “soluble on expression in E. coli” value read?
A: soluble

Q: With “MDAHLVQAKKTSTASELSDSSLTFPFIGDYLSSPSLTTSDYVSDCSNLTVEGPVPANQEFSSSDESSVYISSALRLADYAFTPDDNIRIKPDAVIVICTQCQHQIQDKFFLSIDGRNYHENCLQCSTCENPLSNKCFYKDKTFYCKGCYFRTHVTSTASSCRELGPKCASCDRTIQATDWVRRARNYVYHLACFSCNQCKRQLSTGEEYALQEGNLLCKQHFLELVEGDSGVSSQKAKTKRVRTTFAEDQLSVLQTYFNRDSNPDGADLEKIASMTGLSKRVTQVWFQNSRARQKKWHQKSEGDNGDSQRSSVGPSSPSQKSDSSSEMMYPTSVTTSVEDAIPDSIVILGSLQFD” as the sequence, how does the “soluble on expression in E. coli” value read?
A: not soluble

Q: For “MDALEIFKTLFSLVMRFSSYLPSNEEISDMKTTELYAFLYVALFGPKKMKEIAEFLSTTKSNVTNVVDSLEKRGLVVREMDPVDRRTYRVVLTEKGKEIFGEILSNFESLLKSVLEKFSEEDFKVVSEGFNRMVEALSREGR”, which “soluble on expression in E. coli” value is on record?
A: not soluble

Q: Which “soluble on expression in E. coli” value does the source give for “MDALELLINRRSASRLAEPAPTGEQLQNILRAGMRAPDHKSMQPWHFFVIEGEGRERFSAVLEQGAIAAGSDDKAIDKARNAPFRAPLIITVVAKCEENHKVPRWEQEMSAGCAVMAMQMAAVAQGFGGIWRSGALTESPVVREAFGCREQDKIVGFLYLGTPQLKASTSINVPDPTPFVTYFHH” here?
A: soluble

Q: Which “soluble on expression in E. coli” value does the source give for “MDAYRYWSREAIRADIDTRRHCLHIAIENFENDANIGTVVRTANAFAVDTVHIVGRKRWNRRGAMVTDRYQHLMHHPTTADVVAWAKQQGLTIVAIDNTPGCVPLETAELPERCLLLFGQEGPGVTQEAQDNARMTCSIAQFGSTRSINAGVAAGIAMHAWIRQHADLDNAW” here?
A: not soluble

Q: Which “soluble on expression in E. coli” value does the source give for “MDDVLDRIMGSAPSQSGSSLNRTPKRDHRSNPDMHEPSSKRSAPMFTTPKSATPIGRDSFATLDTLNVQMNMFTMDIKDMPHKLQRLQVDVIICSSNGKQINVNLGVLAAKGDVNSHNRRLAQFFIMRAVHDKLPEKFSGKSHHFLAYDCAATLYVPEGVYTGDAEEQVTLKIDDFPKDEWKIVSKLSRRKDDSYLVTLKPAGFVHTQGEHARAEANRMELTRCVEIITSQMLNNEDYYQFANCPNREAVAVDEVVTAEASPEIHVEVTVAAVLIQEIIVEVTATEVERYRDESRGCRDMNDSRRDSSNGVDYSPSDAAEVEKALGERGSTKRFIEDALKGLDVECTRLKGNLIRVCSIAENNAENTSFMMKGDKGEQEITVVQYFQLQYNIKLKHSRLPLVVSKRFKHESFFPMELLQIAPGQRIKVNKMSPTVQSSMTGMNASMPEQHVKLVQNILIDNLKLKQSKYMDAFGIRLMSTKPLQLPAKLLPPAQIKFKNQTYMPEMSRPAFRTQDKFVQPAHIGRIGVVVFDNCIQMRQAESFCDNLAAICRDNGIKIDQDSRDWTICEINSSDAAGIQNRMRKWADDKVDILFAITREKKPDVHDILKYYEESIGLQTIQVCQQTVDKMMGGGGGRQTIDNVMRKFNLKCGGTNFFDEIPSSVRGRAVCSNSETLSKKLFEHVQFIGFEISHGAARTLFDRSRSQLDGEPSVVGVSYSLTNSTQLGGFTYLQTQKEYKLQKLGEVFPKCVQSYKEHSRRLPTRIVIYRVGAGEGDFKRVKEEIEEIRGTFDKIQPGYRPHLVVVIAQIASHARVFPSNITGRKAMEQNVPSGTCVDNVPTSYGYDEFILSSRTPLIGTVRPCKYTILINDANWSKNEIMHLTYFRAFGHQVSYKPPSVPDVLYAAENLAKRGRNNYKIHQRHVNLQAVENSIIGDHSELINEDMREELAAAIVDHMSVAMNGMTISKRNFWA” here?
A: not soluble

Q: Which “soluble on expression in E. coli” value does the source give for “MDDVYRAFDSVGNILNFRIVEKEQKGFWVSTKIKTVVFDSADMSSDDLFLKCLQSSYKAYFETEPAGLDKRQLMKTLIQKCGFSC” here?
A: not soluble

Q: With “MDEDTEDWETQLQANRDEKDRFFSEHRQSPIPPEERDDFDGLSYFDPDPDYRVEATVTVHETPESVDLETSDDRTVRYLHVATLSFDLDGESRDLHAFRQAADESRTLFVPFRDKTTGQQSYDGGRYMELEPDRDLSDGDEITLDFNLAYSPFCAYSDTFSCPLPPESNWLETAVTAGERTDLEHHHHHH” as the sequence, how does the “soluble on expression in E. coli” value read?
A: soluble

Q: For “MDEEGASVVITIKNEAKNIQKLLDSLFNNDYEHFEVVVVDDMSNDGTEGIVKKYDKVKYIRTRCSRGEGRNIGAMNSSFENILFTDGDAIVSNGWIGGMVSVLNNGFEIAIGKTVYTGKKRYIQDRVKIYFNGIEITAPSVNLAYKKRAFFSLGGFDKRFVTAEDIDLNLRAAMSGFKFGFCNECVVYAKVRDSFISFLKQAFWNGYGRAQLEEKHPGMLKKTDIRLGHNFYDFMHMSAGAAGYLLYKLR”, which “soluble on expression in E. coli” value is on record?
A: soluble

Q: For “MDEIDLRILKILQYNAKYSLDEIAREIRIPKSTLSYRIKKLEKDGVIKGYYAYINPASLNLDYIVITSVKAKYGKNYHVELGNKLAQIPGVWGVYFVLGDNDFIVMARYKTREEFMEKFLERVMSIPEVERASTQVVVKIIKESPNIVIF”, which “soluble on expression in E. coli” value is on record?
A: soluble

Q: For “MDFITDMSKNQRLELQNRLAQYETSLMVMSHNGDVPVITGFNVMRVTTMLDALKVELPAVAVLGDDAQDLAYVFGARPLAVGVNIIRVVDVPGQQPSALVDAELGALHEVSMVRVLNDIADEQLVKANM”, which “soluble on expression in E. coli” value is on record?
A: soluble

Q: Which “soluble on expression in E. coli” value does the source give for “MDFPRIIMARNPIYFESIQIGEKIEGLPRTVTETDIWTFAYLTADFFPLHTDVEFAKKTIFGKPIAQGMLVLSIALGMVDQVILSNYDVSSVIAFFGIKDVRFLRPVFIGDTIAASAEVVEKQDFDEKSGVVTYKLEVKNQRGELVLTALYSALIRKTPSK” here?
A: soluble

Q: For “MDFQNFVATLESFKDLKSGISGSRIKKLTTYALDHIDIESKIISLIIDYSRLCPDSHKLGSLYIIDSIGRAYLDETRSNSNSSSNKPGTCAHAINTLGEVIQELLSDAIAKSNQDHKEKIRMLLDIWDRSGLFQKSYLNAIRSKCFAAALEHHHHHH”, which “soluble on expression in E. coli” value is on record?
A: soluble

Q: With “MDFTQQLQACVTQANQALSRFIAPLPFQNTPVVEAMQYGALLGGKRLRPFLVYATGQMFGVSTATLDAPAAAVECIHAYSLIHDDLPAMDDDDLRRGLPTCHIKFGEANAILAGDALQTLAFAIISDAPMPEVADRDRIAMIAELANASGIAGMCGGQALDLAAEGQRITLDALERIHRHKTGALIRAAVRLGALSAGDKGRNTLPILDRYAESIGLAFQVQDDILDVVGDTATLGKRQGADQQLGKSTYPALLGLEQARNKARDLIEDARQSLHQLAAQSLDTSALEALANYIIQRDK” as the sequence, how does the “soluble on expression in E. coli” value read?
A: not soluble

Q: For “MDGNAPEPRYWEKMRLVAEVLKAVEGPIYIATHVDPDGDAIGSSLGLYRALKALGKEAYWVADPPRFLRFLPKEEEYSDPVEKLPPGATLVALDSAEPSRVVGVPVEGFVINIDHHGTNPRFGHLHVVDPSKAATAQMVKDLIDLLGVEWTAEIATPVLTGILTDTGNFRFANTTPEVLRVAAELLGYGVKLAELTDRLQFRPPSYFRLMGQVLSTVAFHFGGLLVTAHLPEDAGAEEDSDDFVGLIRYVEGSVVSVFLRKREEGVKVSIRSRGGVSAQNIALKLGGGGHVPAAGATLKGLDLDQAYERVLEAVREELTRAGYL”, which “soluble on expression in E. coli” value is on record?
A: soluble

Q: With “MDGRPLNRTTRAVAMIAVTIPAHNEQALIGPCLQSIRVAAQHPALQGEAVEIHVALDRCTDQTGVIARAHGAITQEVCGGVGVARAAAASAAIARGAHWLACTDADTRVPPDWLMAQLACAADAFCGVVEVTDWRDHLSQTRAAFLASEIRHDGHPHVHGANLGMRTSAYLAAGGFSNASSSEDVALVAALEQAGMRIARLASPVVNTSARRSARASGGFADYLLRLEAALLAASPSLGLEHHHHHH” as the sequence, how does the “soluble on expression in E. coli” value read?
A: not soluble

Q: With “MDHDKLEANLLDHALTKYLKSTKQLDEATVPKHVNNVRGFILRIIYRHGSCTIKDILKEVTLSPSATTTALNHLEQEGFIERSRNNNDRRTVWITLSESGRGAAEQMIENRQQLIDGMFERLTAEEKKTFLAIIAKLAQ” as the sequence, how does the “soluble on expression in E. coli” value read?
A: not soluble

Q: For “MDHHHHHHHHASENLYFQGHMNLDLAYRSFVLGVAGHPQVERLIKHRAKGLVRRYVAGETLEEALKAAEALEREGVHAILDLLGEMVRTEEEARAFQRGLLELVWALAGKPWPKYISLKLTQLGLDLSEDLALALLREVLREAEPRGVFVRLDMEDSPRVEATLRLYRALREEGFSQVGIVLQSYLYRTEKDLLDLLPYRPNLRLVKGAYREPKEVAFPDKRLIDAEYLHLGKLALKEGLYVAFATHDPRIIAELKRYTEAMGIPRSRFEFQFLYGVRPEEQRRLAREGYTVRAYVPYGRDWYPYLTRRIAERPENLLLVLRSLVSG”, which “soluble on expression in E. coli” value is on record?
A: soluble
